Test results published in US11965030 (Sanofi, dated 2024).
Each block holds one binder with its values, some of them ahead of it.

Tests used:
CD40 [1] = target: T1, CD40 (UniProt P25942 21-193, limits assumed); test: SPR (Biacore 3000), column 'Affinity'
T1 construct: construct not described

CD40 [2] = target: T1, CD40; test: SPR
PD-L1 = target: T2, PD-L1 (UniProt Q9NZQ7 19-239, limits assumed); test: SPR (Biacore 3000), column 'Affinity'
T2 construct: construct not described; also called Programmed Cell Death Ligand 1 (PD-L1)

GITR = target: T3, GITR (UniProt Q9Y5U5 26-161, limits assumed); test: SPR (Biacore 3000), column 'Affinity'
T3 construct: construct not described; also called Glucocorticoid-Induce TNFR-Related Protein (GITR)
T3 sequence (looked up): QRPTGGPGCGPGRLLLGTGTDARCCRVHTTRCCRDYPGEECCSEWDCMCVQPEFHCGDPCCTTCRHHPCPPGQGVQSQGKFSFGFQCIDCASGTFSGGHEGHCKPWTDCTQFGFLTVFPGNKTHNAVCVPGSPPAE

OX40 = target: T4, OX40 (UniProt P43489 29-216); test: SPR (Biacore 3000), column 'Affinity'
T4 construct: construct not described
T4 sequence (looked up): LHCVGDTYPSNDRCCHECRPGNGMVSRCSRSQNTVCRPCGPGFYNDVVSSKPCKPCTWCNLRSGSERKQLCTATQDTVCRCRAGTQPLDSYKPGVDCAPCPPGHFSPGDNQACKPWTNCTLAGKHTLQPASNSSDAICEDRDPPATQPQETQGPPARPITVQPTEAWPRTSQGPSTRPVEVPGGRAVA

T1 sequence (P25942 21-193 limits assumed): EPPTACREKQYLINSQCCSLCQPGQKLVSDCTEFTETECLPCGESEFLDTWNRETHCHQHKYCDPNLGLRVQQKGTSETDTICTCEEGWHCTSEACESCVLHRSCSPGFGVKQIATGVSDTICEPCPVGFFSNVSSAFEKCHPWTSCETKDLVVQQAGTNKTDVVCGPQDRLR
T2 sequence (Q9NZQ7 19-239 limits assumed): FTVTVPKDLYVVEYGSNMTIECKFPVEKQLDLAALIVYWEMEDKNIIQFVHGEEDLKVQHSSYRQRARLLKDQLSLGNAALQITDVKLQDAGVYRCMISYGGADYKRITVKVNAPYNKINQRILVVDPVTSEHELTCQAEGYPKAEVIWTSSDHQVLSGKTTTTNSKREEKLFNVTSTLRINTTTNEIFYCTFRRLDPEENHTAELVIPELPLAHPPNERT

B1: CD40 (CH1: L143Q, S188V; CK: V133T, S176V) × PD-L1 (CH1: T192E; CK: N137K, S114A) (closed) (bispecific antibody)
light 1: DIQMTQSPSSVSASVGDRVTITCRASQGIYSWLAWYQQKPGKAPNLLIYTASTLQSGVPSRFSGSGSGTDFTLTISSLQPEDFATYYCQQANIFPLTFGGGTKVEIKRTVAAPAVFIFPPSDEQLKSGTASVVCLLKNFYPREAKVQWKVDNALQSGNSQESVTEQDSKDSTYSLSSTLTLSKADYEKHKVYACEVTHQGLSSPVTKSFNRGEC
heavy: not shown
light 2: not shown
notes: Tandem Fab; also called T13
- Kd (CD40 [1]): 2.4 nM

B3: PD-L1 (Q38E-Q39K)-(CH1: L143Q, S188V; CK: V133T, S176V) × OX40 (Q38K-Q39E)-(CH1: T192E; CK: N137K, S114A) (open) (bispecific antibody)
light 1: not shown
heavy: not shown
light 2: DIQMTQSPSSVSASVGDRVTITCRASQGIYSWLAWYQKKPGKAPNLLIYTASTLQSGVPSRFSGSGSGTDFTLTISSLQPEDFATYYCQQANIFPLTFGGGTKVEIKRTVAAPAVFIFPPSDEQLKSGTASVVCLLKNFYPREAKVQWKVDNALQSGNSQESVTEQDSKDSTYSLSSTLTLSKADYEKHKVYACEVTHQGLSSPVTKSFNRGEC
notes: Tandem Fab; also called T18
- Kd (PD-L1): 0.023 nM
- Kd (CD40 [1]): 2.1 nM

B5: CD40 (Q38E-Q39K)-(CH1: L143Q, S188V; CK: V133T, S176V) × PD-L1 (Q38K-Q39E)-(CH1: T192E; CK: N137K, S114A) (closed) (bispecific antibody)
light 1: DIQMTQSPSSVSASVGDRVTITCRASQGIYSWLAWYQKKPGKAPNLLIYTASTLQSGVPSRFSGSGSGTDFTLTISSLQPEDFATYYCQQANIFPLTFGGGTKVEIKRTVAAPAVFIFPPSDEQLKSGTASVVCLLKNFYPREAKVQWKVDNALQSGNSQESVTEQDSKDSTYSLSSTLTLSKADYEKHKVYACEVTHQGLSSPVTKSFNRGEC
heavy: not shown
light 2: not shown
notes: Tandem Fab; Same printed name as T14; also called T22
- Kd (PD-L1): 0.058 nM
- Kd (CD40 [1]): 1.7 nM

B6: CD40 (CH1: L143Q, S188V; CK: V133T, S176V) × PD-L1 (CH1: T192E; CK: N137K, S114A) (open) (bispecific antibody)
light 1: DIQMTQSPSSVSASVGDRVTITCRASQGIYSWLAWYQQKPGKAPNLLIYTASTLQSGVPSRFSGSGSGTDFTLTISSLQPEDFATYYCQQANIFPLTFGGGTKVEIKRTVAAPAVFIFPPSDEQLKSGTASVVCLLKNFYPREAKVQWKVDNALQSGNSQESVTEQDSKDSTYSLSSTLTLSKADYEKHKVYACEVTHQGLSSPVTKSFNRGEC
heavy: not shown
light 2: not shown
notes: Tandem Fab; also called T17
- Kd (CD40 [1]): 3.1 nM

B9: GITR (Q38K-Q39E)-(CH1: T192E; CK: N137K, S114A) × OX40 (Q38E-Q39K)-(CH1: L143Q, S188V; CK: V133T, S176V) (closed) (bispecific antibody)
light 1: EIVMTQSPATLSVSPGERATLSCKASQNVGTNVAWYQKKPGQAPRLLIYSASYRYSGIPARFSGSGSGTEFTLTISSLQSEDFAVYYCQQYNTDPLTFGGGTKVEIKRTVAAPAVFIFPPSDEQLKSGTASVVCLLKNFYPREAKVQWKVDNALQSGNSQESVTEQDSKDSTYSLSSTLTLSKADYEKHKVYACEVTHQGLSSPVTKSFNRGEC
heavy: not shown
light 2: not shown
notes: Tandem Fab; also called T3
- Kd (GITR): 0.3 nM
- Kd (OX40): 0.3 nM

B10: OX40 (CH1: L143Q, S188V; CK: V133T, S176V) × GITR (CH1: T192E; CK: N137K, S114A) (closed) (bispecific antibody)
light 1: not shown
heavy: not shown
light 2: EIVMTQSPATLSVSPGERATLSCKASQNVGTNVAWYQQKPGQAPRLLIYSASYRYSGIPARFSGSGSGTEFTLTISSLQSEDFAVYYCQQYNTDPLTFGGGTKVEIKRTVAAPAVFIFPPSDEQLKSGTASVVCLLKNFYPREAKVQWKVDNALQSGNSQESVTEQDSKDSTYSLSSTLTLSKADYEKHKVYACEVTHQGLSSPVTKSFNRGEC
notes: Tandem Fab; also called T4
- Kd (GITR): 0.9 nM
- Kd (OX40): 0.2 nM

Results, then the binder that gave them:

- binding result (CD40 [2]): binds
B2: anti-CD40 × anti-PD-L1 Y-shaped antibody Y30 (bispecific antibody)
light 1: DIQMTQSPSSVSASVGDRVTITCRASQGIYSWLAWYQQKPGKAPNLLIYTASTLQSGVPSRFSGSGSGTDFTLTISSLQPEDFATYYCQQANIFPLTFGGGTKVEIKRTVAAPSVFIFPPSDEQLKSGTASVVCLLNNFYPREAKVQWKVDNALQSGNSQESVTEQDSKDSTYSLSSTLTLSKADYEKHKVYACEVTHQGLSSPVTKSFNRGEC
heavy 1: not shown
heavy 2: not shown
light 2: not shown
notes: CD40 arm wild type (knob); PD-L1 arm S114A,E123K,N137K / T192E,K221E (hole)

- Kd (CD40 [1]): 4 nM
B4: PD-L1 (Q38K-Q39E)-(CH1: T192E; CK: N137K, S114A) × CD40 (Q38E-Q39K)-(CH1: L143Q, S188V; CK: V133T, S176V) (open) (bispecific antibody)
light 1: not shown
heavy: not shown
light 2: DIQMTQSPSSVSASVGDRVTITCRASQGIYSWLAWYQQKPGKAPNLLIYTASTLQSGVPSRFSGSGSGTDFTLTISSLQPEDFATYYCQQANIFPLTFGGGTKVEIKRTVAAPAVFIFPPSDEQLKSGTASVVCLLKNFYPREAKVQWKVDNALQSGNSQESVTEQDSKDSTYSLSSTLTLSKADYEKHKVYACEVTHQGLSSPVTKSFNRGEC
notes: Tandem Fab; also called T16

- Kd (PD-L1): 0.051 nM
- Kd (CD40 [1]): 1.6 nM
B7: CD40 (Q38E-Q39K)-(CH1: L143Q, S188V; CK: V133T, S176V) × PD-L1 (Q38K-Q39E)-(CH1: T192E; CK: N137K, S114A) (open) (bispecific antibody)
light 1: DIQMTQSPSSVSASVGDRVTITCRASQGIYSWLAWYQKKPGKAPNLLIYTASTLQSGVPSRFSGSGSGTDFTLTISSLQPEDFATYYCQQANIFPLTFGGGTKVEIKRTVAAPAVFIFPPSDEQLKSGTASVVCLLKNFYPREAKVQWKVDNALQSGNSQESVTEQDSKDSTYSLSSTLTLSKADYEKHKVYACEVTHQGLSSPVTKSFNRGEC
heavy: not shown
light 2: not shown
notes: Tandem Fab; also called T26

- Kd (PD-L1): 0.019 nM
- Kd (CD40 [1]): 2.4 nM
B8: CD40 (Q38E-Q39K)-(CH1: L143Q, S188V; CK: V133T, S176V) × PD-L1 (Q38K-Q39E)-(CH1: T192E; CK: N137K, S114A) (closed) (bispecific antibody)
light 1: not shown
heavy: not shown
light 2: DIQMTQSPSSVSASVGDRVTITCRASQGIYSWLAWYQKKPGKAPNLLIYTASTLQSGVPSRFSGSGSGTDFTLTISSLQPEDFATYYCQQANIFPLTFGGGTKVEIKRTVAAPAVFIFPPSDEQLKSGTASVVCLLKNFYPREAKVQWKVDNALQSGNSQESVTEQDSKDSTYSLSSTLTLSKADYEKHKVYACEVTHQGLSSPVTKSFNRGEC
notes: Tandem Fab; also called T14

- Kd (GITR): 0.5 nM
- binding result (OX40): no binding
B11: GITR (CH1: T192E; CK: N137K, S114A) × OX40 (CH1: L143Q, S188V; CK: V133T, S176V) (open) (bispecific antibody)
light 1: EIVMTQSPATLSVSPGERATLSCKASQNVGTNVAWYQQKPGQAPRLLIYSASYRYSGIPARFSGSGSGTEFTLTISSLQSEDFAVYYCQQYNTDPLTFGGGTKVEIKRTVAAPAVFIFPPSDEQLKSGTASVVCLLKNFYPREAKVQWKVDNALQSGNSQESVTEQDSKDSTYSLSSTLTLSKADYEKHKVYACEVTHQGLSSPVTKSFNRGEC
heavy: not shown
light 2: not shown
notes: Tandem Fab; LC-2 as printed is the light chain that elsewhere goes with PD1 (EIVLTQ...SSNWPRT), not the OX40 light chain; also called T6

- Kd (GITR): 0.7 nM
- Kd (OX40): 0.2 nM
B12: OX40 (Q38E-Q39K)-(CH1: L143Q, S188V; CK: V133T, S176V) × GITR (Q38K-Q39E)-CH1: T192E; CK: N137K, S114A) closed) (bispecific antibody)
light 1: not shown
heavy: not shown
light 2: EIVMTQSPATLSVSPGERATLSCKASQNVGTNVAWYQKKPGQAPRLLIYSASYRYSGIPARFSGSGSGTEFTLTISSLQSEDFAVYYCQQYNTDPLTFGGGTKVEIKRTVAAPAVFIFPPSDEQLKSGTASVVCLLKNFYPREAKVQWKVDNALQSGNSQESVTEQDSKDSTYSLSSTLTLSKADYEKHKVYACEVTHQGLSSPVTKSFNRGEC
notes: Tandem Fab; also called T5

- Kd (GITR): 0.7 nM
- Kd (OX40): 1 nM
B13: GITR (Q38K-Q39E)-(CH1: T192E; CK: N137K, S114A) × OX40 (Q38E-Q39K)-(CH1: L143Q, S188V; CK: V133T, S176V) (open) (bispecific antibody)
light 1: EIVMTQSPATLSVSPGERATLSCKASQNVGTNVAWYQKKPGQAPRLLIYSASYRYSGIPARFSGSGSGTEFTLTISSLQSEDFAVYYCQQYNTDPLTFGGGTKVEIKRTVAAPAVFIFPPSDEQLKSGTASVVCLLKNFYPREAKVQWKVDNALQSGNSQESVTEQDSKDSTYSLSSTLTLSKADYEKHKVYACEVTHQGLSSPVTKSFNRGEC
heavy: not shown
light 2: not shown
notes: Tandem Fab; also called T7

- Kd (GITR): 0.6 nM
- Kd (OX40): 0.3 nM
B14: OX40 (CH1: L143Q, S188V; CK: V133T, S176V) × GITR (CH1: T192E; CK: N137K, S114A) (open) (bispecific antibody)
light 1: not shown
heavy: not shown
light 2: EIVMTQSPATLSVSPGERATLSCKASQNVGTNVAWYQQKPGQAPRLLIYSASYRYSGIPARFSGSGSGTEFTLTISSLQSEDFAVYYCQQYNTDPLTFGGGTKVEIKRTVAAPAVFIFPPSDEQLKSGTASVVCLLKNFYPREAKVQWKVDNALQSGNSQESVTEQDSKDSTYSLSSTLTLSKADYEKHKVYACEVTHQGLSSPVTKSFNRGEC
notes: Tandem Fab; also called T8

- Kd (GITR): 0.6 nM
- Kd (OX40): 0.2 nM
B15: OX40 (Q38E-Q39K)-(CH1: L143Q, S188V; CK: V133T, S176V) × GITR (Q38K-Q39E)-(CH1: T192E; CK: N137K, S114A) (open) (bispecific antibody)
light 1: not shown
heavy: not shown
light 2: EIVMTQSPATLSVSPGERATLSCKASQNVGTNVAWYQKKPGQAPRLLIYSASYRYSGIPARFSGSGSGTEFTLTISSLQSEDFAVYYCQQYNTDPLTFGGGTKVEIKRTVAAPAVFIFPPSDEQLKSGTASVVCLLKNFYPREAKVQWKVDNALQSGNSQESVTEQDSKDSTYSLSSTLTLSKADYEKHKVYACEVTHQGLSSPVTKSFNRGEC
notes: Tandem Fab; also called T9
